# Patent publication US20220002395A1 (FAPON BIOTECH, published 2022)
# Where a chain is given by its changes, count along the chain named.
# B1: Mutation 1-3 (antibody, mouse IgG2b, kappa, V domains shown)
# VH: EVQLQQSGPEVVKPGASVKISCKASGYTITDYYMNWVKQSHGKGLEWIGDLNPINGGTAYQQKFRDKATLTVDKSSNTAYMELRSLTSEDSALYYCTRGAEDYWGQGTTLTVSS
# VL: DVVLTQTPLSLSVTIGQPASISCKSSQSIIYSNGKIYLNWFQQRPGQSPKRLMYQLSKLEPGIPDRFSGSGSETDFTLKISRVEAEDLGVYYCLQGTYSPQTFGGGTKLEIKR
# notes: Mutation 1 as framework
# B2: Mutation 1-16 (antibody, mouse IgG2b, kappa, V domains shown)
# VH: B1 VH with L51I, N55Q, Q61N
# VL: B1 VL with I29L, I30L, N33Q, L56V, E60D
# notes: Mutation 1 as framework
# B3: Mutation 1-13 (antibody, mouse IgG2b, kappa, V domains shown)
# VH: B1 VH with Y27S, I29L, L51I, N55Q, Q61N, R98K
# VL: B1 VL with I30L, N33Q, L56I, S99Y
# notes: Mutation 1 as framework
# B4: Mutation 1-7 (antibody, mouse IgG2b, kappa, V domains shown)
# VH: B1 VH with L51I
# VL: B1 VL with I29L, L56I, G96A, S99Y
# notes: Mutation 1 as framework
# B5: Mutation 1-32 (antibody, mouse IgG2b, kappa, V domains shown)
# VH: B1 VH with L51V, N55Q
# VL: B1 VL with I29L, I30L, E60D, G96A, S99Y
# notes: Mutation 1 as framework
# B6: Mutation 1-6 (antibody, mouse IgG2b, kappa, V domains shown)
# VH: B1 VH with N55Q, Q61N, R98K
# VL: B1 VL with I29L, L56I, E60D, G96A
# notes: Mutation 1 as framework
# B7: Mutation 1-33 (antibody, mouse IgG2b, kappa, V domains shown)
# VH: B1 VH with Y27T, I29L, N55Q, Q61N, R98K
# VL: B1 VL with I29L, I30L
# notes: Mutation 1 as framework
# B8: Mutation 1-11 (antibody, mouse IgG2b, kappa, V domains shown)
# VH: B1 VH with L51V, Q61N, R98K
# VL: B1 VL with L56V, G96A, S99T
# notes: Mutation 1 as framework
# B9: Mutation 1-29 (antibody, mouse IgG2b, kappa, V domains shown)
# VH: B1 VH with L51V, N55Q, Q61N
# VL: B1 VL with N33Q, L56V, S99Y
# notes: Mutation 1 as framework
# B10: Mutation 1-22 (antibody, mouse IgG2b, kappa, V domains shown)
# VH: B1 VH with L51I, N55Q, R98K
# VL: B1 VL with L56V, E60D, G96A
# notes: Mutation 1 as framework
# B11: Mutation 1-23 (antibody, mouse IgG2b, kappa, V domains shown)
# VH: B1 VH with Y27T, I29L, L51V, N55Q, Q61N
# VL: B1 VL with L56V, S99Y
# notes: Mutation 1 as framework
# B12: Mutation 1-21 (antibody, mouse IgG2b, kappa, V domains shown)
# VH: B1 VH with Y27T, I29L, N55Q, Q61N
# VL: B1 VL with I29L, I30L, N33Q, S99T
# notes: Mutation 1 as framework
# B13: Mutation 1-39 (antibody, mouse IgG2b, kappa, V domains shown)
# VH: B1 VH with Y27T, I29L, R98K
# VL: B1 VL with I29L, I30L, G96A, S99T
# notes: Mutation 1 as framework
# B14: Mutation 1-18 (antibody, mouse IgG2b, kappa, V domains shown)
# VH: B1 VH with I29L, N55Q, Q61N, R98K
# VL: B1 VL with I29L, I30L, N33Q, L56I, E60D, S99T
# notes: Mutation 1 as framework
# B15: Mutation 1-19 (antibody, mouse IgG2b, kappa, V domains shown)
# VH: B1 VH with Y27T, I29L, L51I, N55Q, Q61N
# VL: B1 VL with N33Q, L56I, G96A
# notes: Mutation 1 as framework
# B16: Mutation 1-26 (antibody, mouse IgG2b, kappa, V domains shown)
# VH: B1 VH with Y27T, I29L, L51V, N55Q, Q61N
# VL: B1 VL with I29L, I30L, N33Q, E60D, S99Y
# notes: Mutation 1 as framework
# B17: Mutation 1-37 (antibody, mouse IgG2b, kappa, V domains shown)
# VH: B1 VH with L51I, R98K
# VL: B1 VL with I29L, I30L, L56I, G96A, S99Y
# notes: Mutation 1 as framework
# B18: Mutation 1-25 (antibody, mouse IgG2b, kappa, V domains shown)
# VH: B1 VH with L51I, N55Q, Q61N
# VL: B1 VL with I29L, I30L, N33Q, L56I, S99T
# notes: Mutation 1 as framework
# B19: Mutation 1-28 (antibody, mouse IgG2b, kappa, V domains shown)
# VH: B1 VH with L51I, N55Q, R98K
# VL: B1 VL with L56V, E60D, G96A, S99T
# notes: Mutation 1 as framework
# B20: Mutation 1-20 (antibody, mouse IgG2b, kappa, V domains shown)
# VH: B1 VH with Y27S, L51V, N55Q, Q61N, R98K
# VL: B1 VL with N33Q, E60D, S99Y
# notes: Mutation 1 as framework
# B21: Mutation 1-14 (antibody, mouse IgG2b, kappa, V domains shown)
# VH: B1 VH with I29L, L51V, Q61N, R98K
# VL: B1 VL with I29L, E60D, G96A, S99T
# notes: Mutation 1 as framework
# B22: Mutation 1-2 (antibody, mouse IgG2b, kappa, V domains shown)
# VH: B1 VH with Y27S, I29L, L51V, N55Q, R98K
# VL: B1 VL with I29L, I30L, E60D, G96A, S99T
# notes: Mutation 1 as framework
# B23: Mutation 1-17 (antibody, mouse IgG2b, kappa, V domains shown)
# VH: B1 VH with L51V, Q61N, R98K
# VL: B1 VL with I29L, I30L, N33Q, L56V, S99Y
# notes: Mutation 1 as framework
# B24: Mutation 1-35 (antibody, mouse IgG2b, kappa, V domains shown)
# VH: B1 VH with L51V, N55Q
# VL: B1 VL with I29L, I30L, L56V, G96A, S99Y
# notes: Mutation 1 as framework
# B25: Mutation 1-10 (antibody, mouse IgG2b, kappa, V domains shown)
# VH: B1 VH with L51I, Q61N
# VL: B1 VL with I29L, I30L, L56V, E60D, S99Y
# notes: Mutation 1 as framework
# B26: Mutation 1-4 (antibody, mouse IgG2b, kappa, V domains shown)
# VH: B1 VH with I29L, L51I, R98K
# VL: B1 VL with I30L, L56V, E60D, G96A, S99Y
# notes: Mutation 1 as framework
# B27: Mutation 1-5 (antibody, mouse IgG2b, kappa, V domains shown)
# VH: B1 VH with Y27S, I29L, L51V, Q61N
# VL: B1 VL with I30L, N33Q, L56V, S99T
# notes: Mutation 1 as framework
# B28: Mutation 1-31 (antibody, mouse IgG2b, kappa, V domains shown)
# VH: B1 VH with Y27T, I29L, L51I, R98K
# VL: B1 VL with I29L, I30L, L56I, S99T
# notes: Mutation 1 as framework
# B29: Mutation 1-41 (antibody, mouse IgG2b, kappa, V domains shown)
# VH: B1 VH with I29L, L51V, R98K
# VL: B1 VL with I30L, L56V, G96A, S99Y
# notes: Mutation 1 as framework
# B30: Mutation 1-8 (antibody, mouse IgG2b, kappa, V domains shown)
# VH: B1 VH with L51V, N55Q, Q61N, R98K
# VL: B1 VL with I29L, I30L, N33Q, E60D, G96A, S99T
# notes: Mutation 1 as framework
# B31: Mutation 1-15 (antibody, mouse IgG2b, kappa, V domains shown)
# VH: B1 VH with N55Q, Q61N
# VL: B1 VL with I29L, S99T
# notes: Mutation 1 as framework
# B32: Mutation 1-1 (antibody, mouse IgG2b, kappa, V domains shown)
# VH: B1 VH with L51I, N55Q, Q61N
# VL: B1 VL with N33Q, L56I, S99Y
# notes: Mutation 1 as framework
# B33: Mutation 1-42 (antibody, mouse IgG2b, kappa, V domains shown)
# VH: B1 VH
# VL: B1 VL with I30L, L56I, E60D
# notes: Mutation 1 as framework
# B34: Mutation 1-30 (antibody, mouse IgG2b, kappa, V domains shown)
# VH: B1 VH with Y27S, I29L, N55Q, Q61N, R98K
# VL: B1 VL with L56I, E60D, G96A
# notes: Mutation 1 as framework
# B35: Mutation 1-34 (antibody, mouse IgG2b, kappa, V domains shown)
# VH: B1 VH with Y27T, I29L, L51I
# VL: B1 VL with I29L, I30L, L56V, E60D, S99T
# notes: Mutation 1 as framework
# B36: Mutation 1-27 (antibody, mouse IgG2b, kappa, V domains shown)
# VH: B1 VH with Y27T, I29L, R98K
# VL: B1 VL
# notes: Mutation 1 as framework
# B37: Mutation 1-24 (antibody, mouse IgG2b, kappa, V domains shown)
# VH: B1 VH with Y27T, I29L, N55Q, R98K
# VL: B1 VL with L56I, E60D, G96A
# notes: Mutation 1 as framework
# B38: Mutation 1-12 (antibody, mouse IgG2b, kappa, V domains shown)
# VH: B1 VH with Q61N
# VL: B1 VL with I30L, L56I, E60D
# notes: Mutation 1 as framework
# B39: Mutation 1-52 (antibody, mouse IgG2b, kappa, V domains shown)
# VH: B1 VH with Y27T, I29L, L51I, N55Q
# VL: B1 VL with L56V, E60D, G96A, S99Y
# notes: Mutation 1 as framework
# B40: Mutation 1-44 (antibody, mouse IgG2b, kappa, V domains shown)
# VH: B1 VH with L51V
# VL: B1 VL with I30L, E60D, G96A
# notes: Mutation 1 as framework
# B41: Mutation 1-40 (antibody, mouse IgG2b, kappa, V domains shown)
# VH: B1 VH with Y27T, I29L, L51I
# VL: B1 VL with I30L, E60D, S99T
# notes: Mutation 1 as framework
# B42: Mutation 1-38 (antibody, mouse IgG2b, kappa, V domains shown)
# VH: B1 VH with Y27T, I29L, L51V, N55Q
# VL: B1 VL with I29L, I30L, E60D
# notes: Mutation 1 as framework
# B43: Mutation 1-51 (antibody, mouse IgG2b, kappa, V domains shown)
# VH: B1 VH with Y27S, I29L, R98K
# VL: B1 VL with I29L, I30L, S99Y
# notes: Mutation 1 as framework
# B44: Mutation 1-43 (antibody, mouse IgG2b, kappa, V domains shown)
# VH: B1 VH with Y27T, I29L, L51I, R98K
# VL: B1 VL with I30L, L56I
# notes: Mutation 1 as framework
# B45: Mutation 1-9 (antibody, mouse IgG2b, kappa, V domains shown)
# VH: B1 VH with I29L, N55Q, Q61N
# VL: B1 VL with N33Q
# notes: Mutation 1 as framework
# B46: Mutation 1-36 (antibody, mouse IgG2b, kappa, V domains shown)
# VH: B1 VH with Y27T, I29L, N55Q, Q61N
# VL: B1 VL with I29L, I30L, L56I, E60D
# notes: Mutation 1 as framework
# Biological target: T1, Plasmodium falciparum histidine-rich protein II (HRP-II) (Plasmodium falciparum, UniProt P05227 22-332)
# T1 construct: Coating antigen of all ELISAs; also called HRP-II protein; MA-HRPII Ag protein
# T1 sequence (looked up): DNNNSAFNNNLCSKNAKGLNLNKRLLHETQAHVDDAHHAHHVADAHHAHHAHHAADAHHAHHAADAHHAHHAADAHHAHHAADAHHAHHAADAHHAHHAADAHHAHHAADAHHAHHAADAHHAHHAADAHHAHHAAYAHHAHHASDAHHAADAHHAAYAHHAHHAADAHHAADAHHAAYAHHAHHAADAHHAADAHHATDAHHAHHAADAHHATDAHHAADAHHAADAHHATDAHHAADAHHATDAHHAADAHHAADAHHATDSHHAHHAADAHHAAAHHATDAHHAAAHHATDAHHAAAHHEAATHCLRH
# Experiment: indirect ELISA, four antigen coating concentrations;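 further: optical density read across an antibody dilution series at each antigen coating level, curves plotted on log scale, KD derived as reciprocal of the averaged constant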
# Procedure: The OD values corresponding to different antibody concentrations with different coating concentrations are obtained. Under the same coating concentration, the antibody concentrations are used as an abscissa, the 00 values are used as an ordinate, and a logarithmic plot is made. […] An average value thereof is taken and a reciprocal thereof is calculated to get the affinity constant KD.
row,Binder,Kd
1,B1,0.362 nM
2,B2,0.502 nM
3,B3,0.0865 nM
4,B4,0.329 nM
5,B5,0.244 nM
6,B6,0.415 nM
7,B7,0.169 nM
8,B8,0.0213 nM
9,B9,0.0835 nM
10,B10,0.0814 nM
11,B11,0.364 nM
12,B12,0.0828 nM
13,B13,0.233 nM
14,B14,0.051 nM
15,B15,0.0835 nM
16,B16,0.211 nM
17,B17,0.365 nM
18,B18,0.444 nM
19,B19,0.012 nM
20,B20,0.251 nM
21,B21,0.226 nM
22,B22,0.0903 nM
23,B23,0.0824 nM

row,Binder,Kd
1,B24,0.521 nM
2,B25,0.827 nM
3,B26,0.465 nM
4,B27,0.125 nM
5,B28,0.0946 nM
6,B29,0.302 nM
7,B30,0.198 nM
8,B31,0.245 nM
9,B32,0.301 nM
10,B33,0.0643 nM
11,B34,0.233 nM
12,B35,0.184 nM
13,B36,0.165 nM
14,B37,0.127 nM
15,B38,0.126 nM
16,B39,0.182 nM
17,B40,0.105 nM
18,B41,0.083 nM
19,B42,0.0883 nM
20,B43,0.179 nM
21,B44,0.124 nM
22,B45,0.0645 nM
23,B46,0.473 nM
